Source: US20040044182A1 (published 2004)

Biological target: T1, β2m (12 kDa non-polymorphic light chain) (human, UniProt P61769 21-119)
T1 construct: No recombinant β2m was added; It came from the human HEK293 cells and co-purified under native conditions; also called beta-2-microglobulin
Assay: immunoblot of the purified protein with anti-β2m antibody (co-purification under native conditions)
Description: Human leukocyte antigens are heterodimeric molecules comprised of glycosylated heavy chains non-covalently associated with a 12 kDa non-polymorphic light chain called β2m. PurifiedrsHLA-G1 (10 to 100 ng) and rsHLA-G2 (10 to 1000 ng) were separated on 15% SDS-PAGE, transferred to nitrocellulose membranes and immuno-detected with anti-Flag M1 antibody or anti-β2m, as shown in FIG. 6. Only rsHLA-G1 was positive for β2m. […] To produce the immunoblot of FIG. 6, purified recombinant sHLA-G1 (10-100 ng) and purified recombinant sHLA-G2 (10-1000 ng) were separated using 15% PAGE-SDS and electrotransferred to nitrocellulose membranes. One blot was detected with anti-Flag-M1 antibody and the other with a mouse anti-β2m. This experiment provides evidence that sBLA-G2 is produced as free alpha chains, while sHLA-G1 is bound to β2m.

T1 sequence (P61769 21-119 limits assumed): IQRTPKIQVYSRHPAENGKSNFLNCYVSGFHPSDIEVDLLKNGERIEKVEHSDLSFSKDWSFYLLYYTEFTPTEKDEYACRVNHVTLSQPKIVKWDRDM

B1: recombinant soluble HLA-G2 (other)
MHC heavy: APLADYKDDDDKLAGSHSMRYFSAAVSRPGRGEPRFIAMGYVDDTQFVRFDSDSACPRMEPRAPWVEQEGPEYWEEETRNTKAHAQTDRMNLQTLRGYYNQSEANPPKTHVTHHPVFDYEATLRCWALGFYPAEIILTWQRDGEDQTQDVELVETRPAGDGTFQKWAAVVVPSGEEQRYTCHVQHEGLPEPLMLRWSKEGDGGIMSVRESRSLSEDL
modifications: glycosylated
notes: Secreted from HEK293 cells; The first amino acid of the α3 domain is asparagine, not aspartic acid as in sHLA-G1; Produced as free alpha chains; also called rsHLA-G2; sHLA-G2
- binding result: no binding (tested: up to 1 µg)
